Article PMC4398322, “Snake neurotoxin α-bungarotoxin is an antagonist at native GABAA receptors” (Neuropharmacology, 2015)

Key:
β1 homomers = biological target: T1, β1 homomers (Mus musculus, UniProt P50571); assay: α-Bgtx-AF555 staining of HEK-293 cells expressing β homomers, with or without permeabilisation; type: binding, murine; settings: 400 nM α-Bgtx-AF555, with or without permeabilisation
T1 construct: expressed in transfected cells; host or cells: HEK-293
Description: (§1) Murine GABAAR α1-6, β1-3, γ2 and δ cDNAs subcloned into pRK-5 and pEGFP-C1 have been described previously ([Mortensen et al., 2011]).
(§2) Cells were transfected with equimolar ratios of cDNAs encoding for α1–6, β1–3 and δ or γ2 GABAA receptor subunits along with eGFP using a calcium phosphate method ([Mortensen et al., 2011]) 15–45 min after plating.
(§3) Live transfected HEK-293 cells were studied 48 h after transfection and washed with Krebs to remove cell culture media and incubated in 400 nM α-Bgtx coupled with Alexa Fluor 555 (α-Bgtx-AF555; Life Technologies) for 10 min at room temperature (RT). Cells were washed and fixed in 4% paraformaldehyde (PFA; Sigma) for 10 min at RT. The cells were imaged immediately post-fixation in saline using a Zeiss LSM 510 Meta confocal microscope and an Achroplan x40 water DIC objective (NA 0.8) as described previously ([Hannan et al., 2012]). This involved choosing the optimal z-section and acquiring images as a mean of 4 scans in 16-bits using a 543 nm Helium–Neon laser and a 560 nm long-pass filter for α-Bgtx-AF555 and a 488 Argon laser with a 505–530 nm band-pass filter for eGFP.
(§4) In experiments using permeabilisation, cells were fixed in 4% PFA for 10 min at RT followed by washes (x3) in phosphate buffered saline (PBS; Sigma) and 0.1% triton-X100 (Sigma) was added for 10 min at RT in 10% (v/v) FCS. Cells were washed to remove the detergent and 400 nM α-Bgtx-AF555 was added for 10 min at RT to label intracellular receptors.
(§5) Confocal images were analysed using ImageJ (version 1.410) as described previously ([Hannan et al., 2013]). For each cell the surface membrane was identified by drawing a region-of-interest (ROI) in the eGFP channel and this was transferred to the α-Bgtx-AF555 channel and the mean membrane fluorescence values were determined. Mean background fluorescence was determined from a region devoid of cells. This was subtracted from the mean membrane fluorescence providing a mean corrected fluorescence intensity value. These values, for different combinations of receptors and drugs, were graphically plotted using Origin.

β2 homomers = biological target: T2, β2 homomers (Mus musculus, UniProt P63137); assay: as above; type: binding, murine; settings: 400 nM α-Bgtx-AF555, with or without permeabilisation
T2 construct: expressed in transfected cells; host or cells: HEK-293
Description: as §1, §2, §3, §4, §5

β3 homomers = biological target: T3, β3 homomers (Mus musculus, UniProt P63080); assay: as above; type: binding, murine; settings: 400 nM α-Bgtx-AF555, with or without permeabilisation
T3 construct: expressed in transfected cells; host or cells: HEK-293
Description: as §1, §2, §3, §4, §5

[1] = system: Receptors containing α3/5/6 subunits and β1/2γ2; assay: α-Bgtx-AF555 cell surface staining of transfected HEK-293 cells; type: binding, murine; settings: 400 nM, 10 min RT; P > 0.05
Description: as §1
(§6) HEK-293 cells were maintained at 37 °C in a humidified 95% air/5% CO2 atmosphere in Dulbecco's modified Eagle's medium (DMEM) supplemented with 10% (v/v) fetal calf serum (FCS), penicillin-G and streptomycin (100 units/ml and 100 μg/ml), 2 mM L-glutamine. Cells were plated onto 22 mm glass coverslips (VWR), coated with poly-L-lysine (Sigma). All media components were from Life Technologies unless otherwise stated.
as §2, §3, §5

α2β2γ2 GABAAR = biological target: T4, α2β2γ2 GABAAR (Mus musculus, UniProt P22723+P26048+P63137); assay: as above; type: binding, murine; settings: 400 nM α-Bgtx-AF555, 10 min RT; n = 6
T4 construct: expressed in transfected cells; host or cells: HEK-293
Description: as §1, §6, §2, §3, §5

α4β1γ2 GABAAR = biological target: T5, α4β1γ2 GABAAR (Mus musculus, UniProt P22723+P50571+Q9D6F4); assay: as above; type: binding, murine; settings: 400 nM α-Bgtx-AF555, 10 min RT; n = 6; not significant vs eGFP alone
T5 construct: expressed in transfected cells; host or cells: HEK-293
Description: as §1, §6, §2, §3, §5

α4β2γ2 GABAAR = biological target: T6, α4β2γ2 GABAAR (Mus musculus, UniProt P22723+P63137+Q9D6F4); assay: as above; type: binding, murine; settings: 400 nM α-Bgtx-AF555, 10 min RT; n = 6; not significant vs eGFP alone
T6 construct: expressed in transfected cells; host or cells: HEK-293
Description: as §1, §6, §2, §3, §5

α1β1γ2 GABAAR = biological target: T7, α1β1γ2 GABAAR (Mus musculus, UniProt P22723+P50571+P62812); assay: as above; type: binding, murine; settings: 400 nM α-Bgtx-AF555, 10 min RT; n = 6
T7 construct: expressed in transfected cells; host or cells: HEK-293
Description: as §1, §6, §2, §3, §5

α1β2γ2 GABAAR = biological target: T8, α1β2γ2 GABAAR (Mus musculus, UniProt P22723+P62812+P63137); assay: as above; type: binding, murine; settings: 400 nM α-Bgtx-AF555, 10 min RT; n = 6
T8 construct: expressed in transfected cells; host or cells: HEK-293
Description: as §1, §6, §2, §3, §5

α2β1γ2 GABAAR = biological target: T9, α2β1γ2 GABAAR (Mus musculus, UniProt P22723+P26048+P50571); assay: as above; type: binding, murine; settings: 400 nM α-Bgtx-AF555, 10 min RT; n = 6
T9 construct: expressed in transfected cells; host or cells: HEK-293
Description: as §1, §6, §2, §3, §5

[2] = system: E18 rat hippocampal cultured neurons; assay: Live cell confocal microscopy of fluorescent α-Bgtx binding to cultured hippocampal neurons; settings: 400 nM; untransfected neurons
Description: Dissociated hippocampal neurons were prepared from embryonic day 18 rat pups as described ([Hannan et al., 2012]). Briefly, hippocampi were dissected in ice-cold Hank's Balanced Salt Solution (HBSS) (Ca^2+/Mg^2+ free) before enzymatic dissociation in 0.1% (w/v) trypsin at 37 °C for 10 min followed by serial washes in pre-warmed HBSS to remove trypsin prior to trituration. Cells were mechanically dissociated using fire-polished glass Pasteur pipettes in plating medium composed of minimal essential medium (MEM) supplemented with 5% (v/v) fetal calf serum (FCS), 5% (v/v) horse serum, penicillin-G and streptomycin (200 units/ml and 200 μg/ml), 2 mM L-glutamine and 35 mM glucose. Cells were plated at a density of 10^6 per ml in plating medium on glass cover-slips previously coated with poly-D-lysine. The neurons were grown and maintained at 37 °C in a humidified 95% air/5% CO2 atmosphere.
In addition, low concentrations of fluorophore-conjugated α-Bgtx can also be used to avoid labelling of GABAARs as the affinity of α-Bgtx for endogenous GABAARs is lower compared to that for the BBS. […] Similarly, the over-expression of recombinant receptors in heterologous expression systems (HEK-293 cells) allows the detection of α-Bgtx fluorescence at low concentrations.

[3] = system: HEK-293 cells expressing only eGFP; assay: α-Bgtx-AF555 cell surface staining of HEK-293 cells expressing only eGFP; type: binding; settings: 400 nM α-Bgtx-AF555, 10 min RT, n = 6
Description: as §6, §2
Live transfected HEK-293 cells were studied 48 h after transfection and washed with Krebs to remove cell culture media and incubated in 400 nM α-Bgtx coupled with Alexa Fluor 555 (α-Bgtx-AF555; Life Technologies) for 10 min at room temperature (RT). […]
Confocal images were analysed using ImageJ (version 1.410) as described previously ([Hannan et al., 2013]). For each cell the surface membrane was identified by drawing a region-of-interest (ROI) in the eGFP channel and this was transferred to the α-Bgtx-AF555 channel and the mean membrane fluorescence values were determined. Mean background fluorescence was determined from a region devoid of cells. This was subtracted from the mean membrane fluorescence providing a mean corrected fluorescence intensity value. […]

T9 sequence (P22723 39-474): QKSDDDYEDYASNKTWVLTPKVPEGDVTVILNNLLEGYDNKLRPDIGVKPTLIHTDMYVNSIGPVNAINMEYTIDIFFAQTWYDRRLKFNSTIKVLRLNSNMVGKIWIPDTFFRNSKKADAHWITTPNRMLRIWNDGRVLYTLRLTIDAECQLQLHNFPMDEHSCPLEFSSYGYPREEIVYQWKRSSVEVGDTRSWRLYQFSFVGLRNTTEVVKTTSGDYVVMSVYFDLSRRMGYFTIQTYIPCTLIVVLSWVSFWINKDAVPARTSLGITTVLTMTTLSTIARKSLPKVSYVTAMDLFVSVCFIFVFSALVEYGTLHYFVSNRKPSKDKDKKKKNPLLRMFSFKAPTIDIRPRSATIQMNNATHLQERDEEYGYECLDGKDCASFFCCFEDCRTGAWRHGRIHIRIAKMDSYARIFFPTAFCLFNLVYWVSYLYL
T9 sequence (P50571 26-474): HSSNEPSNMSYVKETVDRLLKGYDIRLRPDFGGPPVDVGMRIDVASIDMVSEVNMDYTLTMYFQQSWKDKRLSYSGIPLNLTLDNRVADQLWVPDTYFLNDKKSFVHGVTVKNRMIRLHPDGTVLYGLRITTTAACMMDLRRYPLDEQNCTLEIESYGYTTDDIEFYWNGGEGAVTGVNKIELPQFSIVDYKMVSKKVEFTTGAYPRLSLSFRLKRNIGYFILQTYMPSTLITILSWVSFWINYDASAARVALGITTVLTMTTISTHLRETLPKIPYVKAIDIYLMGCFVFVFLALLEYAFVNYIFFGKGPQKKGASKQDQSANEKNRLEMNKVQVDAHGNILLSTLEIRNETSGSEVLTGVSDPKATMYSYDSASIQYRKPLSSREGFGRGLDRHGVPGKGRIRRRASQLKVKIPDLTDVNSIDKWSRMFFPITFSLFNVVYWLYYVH
T9 sequence (P26048 29-451): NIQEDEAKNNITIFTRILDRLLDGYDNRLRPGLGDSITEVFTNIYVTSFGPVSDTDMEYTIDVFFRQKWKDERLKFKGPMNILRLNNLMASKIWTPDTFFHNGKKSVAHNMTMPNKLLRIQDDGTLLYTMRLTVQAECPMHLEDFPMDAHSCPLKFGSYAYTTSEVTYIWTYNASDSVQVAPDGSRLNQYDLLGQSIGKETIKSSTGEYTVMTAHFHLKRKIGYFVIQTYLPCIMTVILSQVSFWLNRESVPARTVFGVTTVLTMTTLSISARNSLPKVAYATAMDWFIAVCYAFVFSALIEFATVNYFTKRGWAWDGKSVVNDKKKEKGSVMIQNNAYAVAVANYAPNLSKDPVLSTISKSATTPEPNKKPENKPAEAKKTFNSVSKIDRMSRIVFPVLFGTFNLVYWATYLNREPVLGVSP
T1 sequence (P50571 26-474): as the sequence (P50571 26-474) above
T5 sequence (P50571 26-474): as above
T5 sequence (P22723 39-474): as the sequence (P22723 39-474) above
T5 sequence (Q9D6F4 36-552): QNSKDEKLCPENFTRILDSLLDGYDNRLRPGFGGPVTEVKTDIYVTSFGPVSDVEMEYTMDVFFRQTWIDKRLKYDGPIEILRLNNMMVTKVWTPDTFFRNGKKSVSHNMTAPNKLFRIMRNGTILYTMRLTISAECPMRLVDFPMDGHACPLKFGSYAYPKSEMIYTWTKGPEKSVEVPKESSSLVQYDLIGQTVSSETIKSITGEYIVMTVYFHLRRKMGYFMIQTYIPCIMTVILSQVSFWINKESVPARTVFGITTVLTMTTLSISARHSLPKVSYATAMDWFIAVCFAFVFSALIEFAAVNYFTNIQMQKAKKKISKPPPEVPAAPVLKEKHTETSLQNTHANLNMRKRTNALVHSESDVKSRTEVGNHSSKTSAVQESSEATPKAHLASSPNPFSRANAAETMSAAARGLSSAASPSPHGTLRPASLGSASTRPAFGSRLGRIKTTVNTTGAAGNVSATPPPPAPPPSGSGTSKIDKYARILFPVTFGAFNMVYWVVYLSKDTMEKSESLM
T7 sequence (P62812 28-455): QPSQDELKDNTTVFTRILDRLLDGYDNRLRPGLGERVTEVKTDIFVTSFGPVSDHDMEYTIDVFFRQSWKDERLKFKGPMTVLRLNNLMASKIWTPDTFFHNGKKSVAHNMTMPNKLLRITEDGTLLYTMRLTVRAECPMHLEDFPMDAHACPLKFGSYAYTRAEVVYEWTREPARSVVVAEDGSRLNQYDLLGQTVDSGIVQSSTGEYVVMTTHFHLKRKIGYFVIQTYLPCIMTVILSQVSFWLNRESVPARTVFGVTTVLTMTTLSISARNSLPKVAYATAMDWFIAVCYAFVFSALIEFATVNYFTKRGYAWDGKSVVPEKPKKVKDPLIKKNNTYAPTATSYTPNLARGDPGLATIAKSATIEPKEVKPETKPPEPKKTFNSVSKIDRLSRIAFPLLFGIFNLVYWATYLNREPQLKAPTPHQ
T7 sequence (P50571 26-474): as the sequence (P50571 26-474) above
T7 sequence (P22723 39-474): as the sequence (P22723 39-474) above
T3 sequence (P63080 26-473): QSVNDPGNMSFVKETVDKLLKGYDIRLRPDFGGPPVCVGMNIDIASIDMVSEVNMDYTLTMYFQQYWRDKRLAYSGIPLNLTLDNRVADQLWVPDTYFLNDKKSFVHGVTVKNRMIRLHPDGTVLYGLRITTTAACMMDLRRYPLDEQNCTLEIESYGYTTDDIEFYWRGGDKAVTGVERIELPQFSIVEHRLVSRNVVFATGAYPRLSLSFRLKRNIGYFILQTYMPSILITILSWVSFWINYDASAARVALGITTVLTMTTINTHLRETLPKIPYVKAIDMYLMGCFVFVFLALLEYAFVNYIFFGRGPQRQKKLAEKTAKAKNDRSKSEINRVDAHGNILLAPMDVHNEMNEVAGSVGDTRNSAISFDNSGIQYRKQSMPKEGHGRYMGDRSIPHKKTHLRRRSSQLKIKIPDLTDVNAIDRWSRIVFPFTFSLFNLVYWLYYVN
T8 sequence (P63137 25-512): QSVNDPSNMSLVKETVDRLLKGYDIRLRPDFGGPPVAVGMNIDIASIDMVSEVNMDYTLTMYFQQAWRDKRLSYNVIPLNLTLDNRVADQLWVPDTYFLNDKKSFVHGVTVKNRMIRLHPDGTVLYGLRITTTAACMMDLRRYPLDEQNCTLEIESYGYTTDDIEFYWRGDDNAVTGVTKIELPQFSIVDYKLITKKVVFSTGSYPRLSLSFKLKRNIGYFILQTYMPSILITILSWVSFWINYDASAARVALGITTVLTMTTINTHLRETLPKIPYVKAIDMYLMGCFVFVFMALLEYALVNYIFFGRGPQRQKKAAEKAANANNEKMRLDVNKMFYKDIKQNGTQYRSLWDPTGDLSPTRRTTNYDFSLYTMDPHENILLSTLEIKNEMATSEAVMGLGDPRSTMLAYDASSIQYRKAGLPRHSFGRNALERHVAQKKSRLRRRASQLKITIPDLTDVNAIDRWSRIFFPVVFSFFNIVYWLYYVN
T8 sequence (P22723 39-474): as the sequence (P22723 39-474) above
T8 sequence (P62812 28-455): as the sequence (P62812 28-455) above
T2 sequence (P63137 25-512): as the sequence (P63137 25-512) above
T6 sequence (P63137 25-512): as above
T6 sequence (P22723 39-474): as the sequence (P22723 39-474) above
T6 sequence (Q9D6F4 36-552): as the sequence (Q9D6F4 36-552) above
T4 sequence (P63137 25-512): as the sequence (P63137 25-512) above
T4 sequence (P26048 29-451): as the sequence (P26048 29-451) above
T4 sequence (P22723 39-474): as the sequence (P22723 39-474) above

## α-Bgtx-AF555: α-Bgtx coupled to Alexa-Fluor 555 (Life Technologies)
β1 homomers
  cell surface and intracellular staining: absent
β2 homomers
  cell surface and intracellular staining: absent
β3 homomers
  cell surface and intracellular staining: high levels of cell surface and intracellular staining
[1]
  labelling with α-BgTx-AF555: did not show any labelling
α2β2γ2 GABAAR
  mean cell surface fluorescence intensity: 1294 a.u.
α4β1γ2 GABAAR
  staining intensity (cell surface fluorescence): 90 ± 64 a.u.
α4β2γ2 GABAAR
  staining intensity (cell surface fluorescence): 64 ± 56 a.u.
α1β1γ2 GABAAR
  staining intensity (cell surface fluorescence): 592 ± 46 a.u.
α1β2γ2 GABAAR
  staining intensity (cell surface fluorescence): 324 ± 33 a.u.
α2β1γ2 GABAAR
  mean cell surface fluorescence intensity: 1057 ± 64 a.u.
[2]
  binding of fluorescent α-Bgtx: do not observe any binding
[3]
  mean cell surface fluorescence intensity: 9 ± 4 a.u.
